± gives the standard deviation of the averaged measurements.
B1: library; a variant is named by its letters at N, in order (parent)
chain: GCUGUCACCGGUGUAUUACCCUAGUGGUCGACCGGUCUGAUGAGUCUNNNNNNAGACGAAACAGC

Columns and labels:
hypoxanthine [1] = variants of: B1; experiment: normalized RNA/DNA level with ligand (relative to sTRSVctl = 100) (log10 (% of sTRSVctl)); ligand: hypoxanthine (xanthine aptamer); higher = less ribozyme self-cleavage, higher mRNA level; conditions: ligand concentration (+) RNA-Seq: 5 mM, HEK293T, reporter: mCherry (pCS4076), ligand present: yes
Outline: (§1)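 RNA level was computed as RNA reads over DNA reads divided by a spiked-in non-cleaving sequence or by the top sequences, then scaled and log-transformed. Scaling was ×100 with log10, the top group was 25 sequences, and the threshold was ≥100 DNA reads. The reads came from HEK293T cells transfected at 4 µg per 6-well well with ribozyme switch library plasmids (mCherry, or eGFP in some ligand experiments). Total RNA was extracted with EDTA 72 h after transfection, with any ligand added 1 h before it.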

hypoxanthine [2] = variants of: B1; experiment: normalized RNA/DNA level without ligand (relative to sTRSVctl = 100) (log10 (% of sTRSVctl)); ligand: hypoxanthine (xanthine aptamer); higher = less ribozyme self-cleavage, higher mRNA level; conditions: HEK293T, reporter: mCherry (pCS4076), ligand present: no
Outline: as §1

| Variant | normalized RNA/DNA level with ligand (log10) (hypoxanthine [1]) | normalized RNA/DNA level without ligand (log10) (hypoxanthine [2]) |
| --- | --- | --- |
| UCUCUU | 1.94 ± 0.043 | 1.814 ± 0.017 |
| UCUCUC | 2.025 ± 0.016 | 1.94 ± 0.09 |
| UCUAUU | 1.93 ± 0.057 | 1.86 ± 0.023 |
| UCUAUA | 1.893 ± 0.016 | 1.858 ± 0.013 |
| GCUGGU | 1.96 ± 0.034 | 1.824 ± 0.013 |
| GCUGGA | 1.904 ± 0.011 | 1.8 ± 0.074 |
| ACUCCA | 2.014 ± 0.018 | 1.91 ± 0.023 |
| ACUCCU | 1.965 ± 0.011 | 1.905 ± 0.018 |
| ACUAGC | 1.881 ± 0.0075 | 1.79 ± 0.075 |
| ACUAGU | 1.88 ± 0.052 | 1.71 ± 0.07 |
| ACGUAC | 1.9 ± 0.041 | 1.55 ± 0.036 |
| ACGUAU | 1.86 ± 0.057 | 1.39 ± 0.053 |
| ACUACC | 2 ± 0.03 | 1.9024 ± 0.00086 |
| ACUACA | 1.92 ± 0.0088 | 1.841 ± 0.014 |
| CCUCGU | 1.98 ± 0.026 | 1.87 ± 0.031 |
| CCUCGC | 1.92 ± 0.054 | 1.92 ± 0.029 |
| CCUAGU | 1.919 ± 0.0097 | 1.872 ± 0.013 |
| CCUAGA | 1.962 ± 0.016 | 1.84 ± 0.057 |
| CCUAGG | 1.86 ± 0.055 | 1.77 ± 0.046 |
| CCUAGC | 1.91 ± 0.08 | 1.842 ± 0.0069 |
| GCUCGU | 1.96 ± 0.042 | 1.83 ± 0.048 |
| GCUUGC | 1.96 ± 0.033 | 1.87 ± 0.048 |
| GCUUGU | 1.93 ± 0.0067 | 1.72 ± 0.023 |

| Variant | normalized RNA/DNA level with ligand (log10) (hypoxanthine [1]) | normalized RNA/DNA level without ligand (log10) (hypoxanthine [2]) |
| --- | --- | --- |
| ACGGUU | 1.84 ± 0.024 | 1.36 ± 0.064 |
| UCGUGU | 1.82 ± 0.059 | 1.33 ± 0.041 |
| GCUGCC | 1.96 ± 0.15 | 1.83 ± 0.093 |
| GCUGCU | 1.92 ± 0.076 | 1.884 ± 0.013 |
| GCUGCA | 1.98 ± 0.021 | 1.83 ± 0.034 |
| ACUAUU | 1.928 ± 0.012 | 1.82 ± 0.03 |
| ACUAUG | 1.89 ± 0.021 | 1.48 ± 0.015 |
| ACUAUC | 1.98 ± 0.03 | 1.95 ± 0.046 |
| CCUGAU | 1.909 ± 0.004 | 1.821 ± 0.013 |
| CCUGAC | 1.92 ± 0.1 | 1.83 ± 0.035 |
| CCUGAA | 1.98 ± 0.078 | 1.78 ± 0.075 |
| ACUGUC | 1.99 ± 0.026 | 1.898 ± 0.0079 |
| ACUGUA | 1.93 ± 0.062 | 1.78 ± 0.036 |
| ACUGUU | 1.9396 ± 0.00019 | 1.81 ± 0.05 |
| UCUAAC | 1.9378 ± 0.00086 | 1.85 ± 0.013 |
| ACUCUC | 2.06 ± 0.025 | 2.014 ± 0.005 |
| CCUCCU | 1.95 ± 0.074 | 1.96 ± 0.026 |
| CCUCCA | 1.94 ± 0.026 | 1.95 ± 0.067 |
| CCGUCU | 1.97 ± 0.036 | 1.83 ± 0.063 |
| CCGUCC | 1.98 ± 0.067 | 1.91 ± 0.057 |
| CCGUCG | 1.89 ± 0.061 | 1.689 ± 0.011 |
| CCGUCA | 1.909 ± 0.008 | 1.855 ± 0.0032 |
| ACUGGC | 1.96 ± 0.036 | 1.844 ± 0.016 |

| Variant | normalized RNA/DNA level with ligand (log10) (hypoxanthine [1]) | normalized RNA/DNA level without ligand (log10) (hypoxanthine [2]) |
| --- | --- | --- |
| ACUGGG | 1.859 ± 0.0034 | 1.44 ± 0.086 |
| ACGUCA | 1.94 ± 0.038 | 1.64 ± 0.032 |
| ACGUCC | 1.957 ± 0.0037 | 1.847 ± 0.015 |
| ACGUCU | 1.95 ± 0.042 | 1.65 ± 0.066 |
| ACGUCG | 1.88 ± 0.041 | 1.41 ± 0.11 |
| GCUAGG | 1.83 ± 0.039 | 1.48 ± 0.02 |
| GCUAGA | 1.92 ± 0.031 | 1.71 ± 0.029 |
| GCUAGU | 1.92 ± 0.11 | 1.722 ± 0.0072 |
| GCUAGC | 1.89 ± 0.1 | 1.79 ± 0.079 |
| CGAACA | 1.94 ± 0.011 | 1.76 ± 0.015 |
| CGAACU | 1.93 ± 0.056 | 1.79 ± 0.018 |
| CGAACG | 1.96 ± 0.038 | 1.8 ± 0.035 |
| GCUAUA | 1.93 ± 0.03 | 1.89 ± 0.034 |
| GCUAUC | 1.966 ± 0.016 | 1.84 ± 0.058 |
| CCGUGC | 1.9 ± 0.057 | 1.54 ± 0.08 |
| UCUUGU | 1.91 ± 0.1 | 1.667 ± 0.0039 |
| UCUUGG | 1.92 ± 0.035 | 1.751 ± 0.008 |
| UCUUGC | 1.98 ± 0.1 | 1.9 ± 0.022 |
| UCUUCA | 1.97 ± 0.11 | 1.8691 ± 0.00053 |
| UCUUCU | 1.979 ± 0.0024 | 1.94 ± 0.099 |
| UCUUCG | 1.93 ± 0.086 | 1.7 ± 0.11 |
| UCUUCC | 2.022 ± 0.017 | 1.92 ± 0.024 |
| UCGUUC | 2 ± 0.031 | 1.95 ± 0.086 |

| Variant | normalized RNA/DNA level with ligand (log10) (hypoxanthine [1]) | normalized RNA/DNA level without ligand (log10) (hypoxanthine [2]) |
| --- | --- | --- |
| UCGUUA | 1.961 ± 0.0027 | 1.736 ± 0.0095 |
| UCGUUU | 1.96 ± 0.042 | 1.8 ± 0.01 |
| UCGUUG | 1.98 ± 0.095 | 1.785 ± 0.01 |
| UCGUCU | 1.93 ± 0.049 | 1.87 ± 0.062 |
| UCGUCG | 1.99 ± 0.042 | 1.85 ± 0.049 |
| UCGUCA | 1.986 ± 0.016 | 1.807 ± 0.0051 |
| UCGUCC | 1.98 ± 0.026 | 1.95 ± 0.0024 |
| UCUUAG | 1.93 ± 0.042 | 1.66 ± 0.017 |
| UCUUAA | 1.87 ± 0.047 | 1.83 ± 0.041 |
| UCUUAC | 1.94 ± 0.058 | 1.83 ± 0.044 |
| UCUUAU | 1.9468 ± 0.0014 | 1.84 ± 0.092 |
| UCUAGG | 1.96 ± 0.072 | 1.92 ± 0.089 |
| UCUAGU | 1.99 ± 0.051 | 1.68 ± 0.019 |
| UCUGCC | 2.04 ± 0.021 | 1.89 ± 0.022 |
| UCUGCA | 1.92 ± 0.024 | 1.88 ± 0.059 |
| UCUGCU | 1.968 ± 0.0085 | 1.924 ± 0.0035 |
| UCUGCG | 2.01 ± 0.08 | 1.73 ± 0.015 |
| CCGUUG | 1.88 ± 0.045 | 1.589 ± 0.0096 |
| CCGUUA | 1.94 ± 0.021 | 1.75 ± 0.094 |
| CCGUUU | 1.95 ± 0.028 | 1.86 ± 0.069 |
| CCGUUC | 1.96 ± 0.079 | 1.82 ± 0.099 |
| CCUUAU | 1.95 ± 0.014 | 1.93 ± 0.069 |
| CCUUAC | 1.94 ± 0.025 | 1.829 ± 0.0071 |

| Variant | normalized RNA/DNA level with ligand (log10) (hypoxanthine [1]) | normalized RNA/DNA level without ligand (log10) (hypoxanthine [2]) |
| --- | --- | --- |
| CCUUAA | 1.96 ± 0.034 | 1.85 ± 0.038 |
| CCUUAG | 1.98 ± 0.025 | 1.72 ± 0.037 |
| UCUGGU | 1.96 ± 0.031 | 1.69 ± 0.084 |
| GCGGUU | 1.919 ± 0.018 | 1.72 ± 0.056 |
| CCUAAU | 1.94 ± 0.12 | 1.86 ± 0.1 |
| CCUAAG | 1.91 ± 0.05 | 1.66 ± 0.013 |
| CCUAAC | 1.93 ± 0.042 | 1.825 ± 0.0078 |
| UCGGUU | 1.938 ± 0.006 | 1.61 ± 0.04 |
| CCUUUA | 1.948 ± 0.019 | 1.84 ± 0.035 |
| CCUUUG | 1.96 ± 0.09 | 1.81 ± 0.076 |
| CCUUUU | 1.966 ± 0.019 | 1.892 ± 0.018 |
| CCUUUC | 2 ± 0.1 | 1.98 ± 0.046 |
| CCUGUC | 1.989 ± 0.006 | 1.987 ± 0.018 |
| CCUGUU | 2.04 ± 0.05 | 1.9 ± 0.14 |
| UCUCAA | 1.92 ± 0.055 | 1.679 ± 0.0047 |
| UCUCAU | 1.975 ± 0.012 | 1.887 ± 0.01 |
| UCUCAC | 2 ± 0.055 | 1.77 ± 0.047 |
| GCGUAA | 1.83 ± 0.035 | 1.49 ± 0.054 |
| GCUGAG | 1.85 ± 0.083 | 1.347 ± 0.012 |
| GCUGAC | 1.9 ± 0.034 | 1.63 ± 0.034 |
| GCUCUA | 1.941 ± 0.0064 | 1.79 ± 0.035 |
| GCUCUU | 1.97 ± 0.052 | 1.91 ± 0.037 |
| GCUCUC | 1.98 ± 0.021 | 1.89 ± 0.079 |
